3 molecules from patent US20120316071A1 (published 2012) can be followed below.

For assay [1], the target named is T1, rHuman CD44/Fc Chimera, CF (R&D Systems Cat#3660-CD) (human, UniProt P16070 21-220).
T1 construct: Bought reagent
Kind of assay: MSD multispot ECL, antigen spotted, Fab 37.2 nM; blank spot 199.

For assay [2], the target named is T2, Recombinant Human DLL4 (R&D Systems Cat#1506-D4/CF) (human, UniProt Q9NR61 27-524).
T2 construct: Bought recombinant protein; also called rHuman DLL4; delta-like protein 4
The assay is described as above.

Assay [3] addresses T3, rHuman IGF-1 sR, (IGF-1 sR), CF (R&D Systems Cat#391-GR) (human, UniProt P08069 31-932).
T3 construct: Bought soluble receptor; also called insulin-like growth factor-1 soluble receptor
Described as above.

The target in assay [4] is T4, rHuman Erythropoietin R/Fc Chimera, CF (R&D Systems Cat#963-ER) (human, UniProt P19235 25-250).
T4 construct: Bought reagent; also called EPO R/Fc; Epo R
T4 sequence (looked up): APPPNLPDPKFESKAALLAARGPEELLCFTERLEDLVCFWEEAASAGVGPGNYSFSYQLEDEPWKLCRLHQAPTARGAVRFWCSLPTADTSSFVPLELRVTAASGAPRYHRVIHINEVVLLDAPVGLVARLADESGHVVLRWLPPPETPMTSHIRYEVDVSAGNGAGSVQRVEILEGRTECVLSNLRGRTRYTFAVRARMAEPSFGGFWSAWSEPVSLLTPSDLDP
The assay is described as above.

Assay [5] concerns the target T5, rHuman ErbB2/Fc Chimera, CF (R&D Systems Cat#1129-ER) (human, UniProt P04626 23-652).
T5 construct: Bought reagent; also called human epidermal growth factor 2 receptor
Described as above.

Assay [6] addresses T6, rHuman Notch-1/Fc Chimera, CF (R&D Systems Cat#3647-TK) (human, UniProt P46531 19-526).
T6 construct: Bought reagent
Described as above.

Assay [7] concerns the target T7, rHuman Erythropoietin R/Fc Chimera, CF (R&D Systems Cat#963-ER) (human, UniProt P19235 25-250).
T7 construct: Bought recombinant protein; also called EPO R/Fc; Epo R; Fc part of the bought chimera not given
T7 sequence (looked up): T4 sequence (looked up)
Kind of assay: Multispot ECL (MSD), antigen spotted on plate, Fab 125 nM; blank spot 403.

The target of assay [8] is T8, Recombinant Human DLL4 (R&D Systems Cat#1506-D4/CF) (human, UniProt Q9NR61 27-524).
T8 construct: Bought recombinant protein; also called rHuman DLL4; delta-like protein 4
The description is as above.

For assay [9], the target named is T9, rHuman Notch-1/Fc Chimera, CF (R&D Systems Cat#3647-TK) (human, UniProt P46531 19-526).
T9 construct: Bought recombinant protein; Fc part of the bought chimera not given
Described as above.

Assay [10] has as its target T10, rHuman IGF-1 sR, CF (R&D Systems Cat#391-GR) (human, UniProt P08069 31-932).
T10 construct: Bought recombinant soluble receptor; also called insulin-like growth factor-1 soluble receptor
The assay is described as above.

The target of assay [11] is T11, rHuman ErbB2/Fc Chimera, CF (R&D Systems Cat#1129-ER) (human, UniProt P04626 23-652).
T11 construct: Bought recombinant protein; also called human epidermal growth factor 2 receptor; Fc part of the bought chimera not given
Kind of assay: MSD multispot ECL, antigen spotted on plate; Fab 0.03188 uM; blank spot 536.

The target of assay [12] is T12, rHuman IGF-1 sR, CF (R&D Systems Cat#391-GR) (human, UniProt P08069 31-932).
T12 construct: Bought recombinant soluble receptor; also called insulin-like growth factor-1 soluble receptor
Described as above.

The target in assay [13] is T13, rHuman Notch-1/Fc Chimera, CF (R&D Systems Cat#3647-TK) (human, UniProt P46531 19-526).
T13 construct: Bought recombinant protein; Fc part of the bought chimera not given
The assay is described as above.

Assay [14] deals with T14, rHuman Erythropoietin R/Fc Chimera, CF (R&D Systems Cat#963-ER) (human, UniProt P19235 25-250).
T14 construct: Bought recombinant protein; also called EPO R/Fc; Epo R; Fc part of the bought chimera not given
T14 sequence (looked up): T4 sequence (looked up)
The assay is described as above.

Assay [15] addresses T15, rHuman HGF R/c-MET/Fc Chimera, CF (R&D Systems Cat#358-MT/CF) (human, UniProt P08581 25-932).
T15 construct: Bought recombinant protein; also called HGF R/Fc; hepatocyte growth factor receptor; Fc part of the bought chimera not given
Described as above.

The target in assay [16] is T16, rHuman EGF R/Fc Chimera, CF (R&D Systems Cat#344-ER) (human, UniProt P00533 25-645).
T16 construct: Bought recombinant protein; also called epidermal growth factor receptor; Fc part of the bought chimera not given
The description is as above.

Assay [17] has as its target T17, rHuman P-Cadherin/Fc Chimera, CF (R&D Systems Cat#861-PC) (human, UniProt P22223 108-654).
T17 construct: Bought recombinant protein; Fc part of the bought chimera not given
Described as above.

The target in assay [18] is T18, rHuman CD44/Fc Chimera, CF (R&D Systems Cat#3660-CD) (human, UniProt P16070 21-220).
T18 construct: Bought recombinant protein; Fc part of the bought chimera not given
Described as above.

Assay [19] deals with T19, Recombinant Human DLL4 (R&D Systems Cat#1506-D4/CF) (human, UniProt Q9NR61 27-524).
T19 construct: Bought recombinant protein; also called delta-like protein 4; rHuman DLL4
The description is as above.

Substitutions are numbered along the chain they refer to.

T15 sequence (P08581 25-932, change not shown): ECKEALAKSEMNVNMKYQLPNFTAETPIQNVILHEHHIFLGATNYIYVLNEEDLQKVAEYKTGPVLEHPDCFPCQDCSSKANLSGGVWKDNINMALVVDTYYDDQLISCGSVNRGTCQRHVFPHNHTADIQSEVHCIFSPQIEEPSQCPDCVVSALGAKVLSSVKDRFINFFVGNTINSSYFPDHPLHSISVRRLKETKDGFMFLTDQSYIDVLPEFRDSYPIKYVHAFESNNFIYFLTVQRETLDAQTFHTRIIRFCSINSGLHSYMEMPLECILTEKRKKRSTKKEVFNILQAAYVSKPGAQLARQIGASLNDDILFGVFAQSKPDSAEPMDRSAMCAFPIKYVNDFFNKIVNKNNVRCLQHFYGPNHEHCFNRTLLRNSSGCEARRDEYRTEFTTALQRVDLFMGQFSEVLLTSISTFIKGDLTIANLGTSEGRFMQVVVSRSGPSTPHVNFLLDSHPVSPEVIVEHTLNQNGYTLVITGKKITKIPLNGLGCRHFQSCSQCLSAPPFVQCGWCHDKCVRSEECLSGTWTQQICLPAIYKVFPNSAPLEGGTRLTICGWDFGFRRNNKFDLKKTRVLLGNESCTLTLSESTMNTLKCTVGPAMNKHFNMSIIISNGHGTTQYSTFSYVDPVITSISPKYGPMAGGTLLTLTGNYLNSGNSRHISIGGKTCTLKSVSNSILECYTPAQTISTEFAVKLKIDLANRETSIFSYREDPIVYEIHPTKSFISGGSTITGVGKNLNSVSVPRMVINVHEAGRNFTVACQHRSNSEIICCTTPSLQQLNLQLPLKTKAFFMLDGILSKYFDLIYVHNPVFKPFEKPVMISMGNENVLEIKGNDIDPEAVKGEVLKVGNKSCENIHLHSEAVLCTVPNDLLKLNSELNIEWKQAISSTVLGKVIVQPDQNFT

B1: Fab VH1-46_IGHD6-6*01_IGHJ1*01 & L6_IGKJ1*01 (Fab, V domains shown)
VH: QVQLVQSGAEVKKPGASVKVSCKASGYTFTSYYMHWVRQAPGQGLEWMGIINPSGGSTSYAQKFQGRVTMTRDTSTSTVYMELSSLRSEDTAVYYCAREEYSSSSAEYFQHWGQGTLVTVSS
VL: not shown
notes: Only variable domains are tied to the molecule; Tested as a Fab made in E. coli: heavy chain from Plasmid A (CH1 constant region, His6 and Flag tags), kappa light chain from Plasmid C (kappa CL); also called parent Hit Fab against DLL4; VH1-46_IGHD6-6*01_IGHJ1*01 & L6_IGKJ1*01 (parental)
In the case of B1, the ECL signal in [1] amounted to 356 ECL signal; in [2] it was 16700 ECL signal; in [3], 295 ECL signal; in assay [4], 315 ECL signal; in assay [5], 384 ECL signal; in assay [6], 402 ECL signal.

B2: Fab VH1-46_IGHD6-13*01_IGHJ4*01 & B3_IGKJ1*01 (Fab, V domains shown)
VH: B1 VH with E100G, S105W, A106Y, E107D, Q110D, H111Y
VL: not shown
notes: Germline Fab made in E. coli; VH was cloned into Plasmid A (CH1, His6 and Flag tags) and the kappa VL into Plasmid C (kappa CL)
For B2, the ECL signal in assay [7] was 9240; in [8] it was 912; in assay [9], 802; in assay [10] it was 654.

B3: Fab VH4-34_IGHD7-27*01_IGHJ4*01 & L5_IGKJ1*01 (Fab, V domains shown)
VH: QVQLQQWGAGLLKPSETLSLTCAVYGGSFSGYYWSWIRQPPGKGLEWIGEINHSGSTNYNPSLKSRVTISVDTSKNQFSLKLSSVTAADTAVYYCARANWGDYFDYWGQGTLVTVSS
VL: DIQMTQSPSSVSASVGDRVTITCRASQGISSWLAWYQQKPGKAPKLLIYAASSLQSGVPSRFSGSGSGTDFTLTISSLQPEDFATYYCQQANSFPPWTFGQGTKVEIKR
notes: Germline library Fab expressed in E. coli; VH was cloned into Plasmid A, which adds CH1 with His6 and Flag tags
Take B3: the ECL signal was determined as 584 in assay [11]; 765 in [12]; 849 in assay [13]; 789 in assay [14]; 693 in assay [15]; 694 in assay [16]. The ECL signal in assay [17] stood at 775; in assay [18], 653; in assay [19], 1280.
